In this assay the target is T1, stabilised, trimeric ectodomain of the SARS-CoV-2 spike glycoprotein (FUR 2P) (SARS-CoV-2, Wuhan-Hu-1 (YP_009724390.1), R682S | R685S | K986P | V987P).
T1 construct: also called S trimer; trimeric spike
Put plainly: BLI. As to conditions: both partners purified.

B1: CR3022 Fab (tag cleaved with TEV, as used in binding assays) (Fab, V domains shown)
VH: QMQLVQSGTEVKKPGESLKISCKGSGYGFITYWIGWVRQMPGKGLEWMGIIYPGDSETRYSPSFQGQVTISADKSINTAYLQWSSLKASDTAIYYCAGGSGISTPMDVWGQGTTVTVAS
VL: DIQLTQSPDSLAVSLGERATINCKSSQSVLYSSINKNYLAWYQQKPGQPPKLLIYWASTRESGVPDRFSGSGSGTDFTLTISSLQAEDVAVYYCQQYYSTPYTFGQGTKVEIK
As for B1, the Kd (commonly the constant that tells how readily two partners part at equilibrium) was 80 nM.

The values are drawn from publication PMC7577971, “Antibody-mediated disruption of the SARS-CoV-2 spike glycoprotein” (Nature Communications, 2020).
